This is an account of results in publication PMC11404848, “Stenotrophomonas maltophilia uses a c-di-GMP module to sense the mammalian body temperature during infection” (PLOS Pathogens, 2024).

Series [1] addresses BtsD^ΔSP (Stenotrophomonas maltophilia CGMCC 1.1788). Put plainly: native gel or EMSA; purified BtsD^ΔSP in 2 mM HEPES, 20 mM K2HPO4, pH 7.9, 2 h at 28°C or 37°C, directly or after a gradual 30-min upshift from 0°C; native gel; fewer tetramers at 37°C. (A gel shift assay detects complexes by their altered migration in electrophoresis.)
The test system of series [2] is T1, BtsR (Stenotrophomonas maltophilia CGMCC 1.1788), ORF:ddddda88.
T1 sequence: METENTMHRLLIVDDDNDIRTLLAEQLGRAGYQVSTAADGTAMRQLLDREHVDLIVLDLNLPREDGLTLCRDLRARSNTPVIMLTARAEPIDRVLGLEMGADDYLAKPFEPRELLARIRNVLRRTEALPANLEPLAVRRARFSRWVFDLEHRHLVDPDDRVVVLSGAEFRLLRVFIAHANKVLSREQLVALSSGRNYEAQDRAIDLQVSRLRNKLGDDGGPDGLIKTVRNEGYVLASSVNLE
Put plainly: EMSA.

The stoichiometry N is the number of molecules, sites or subunits per partner or assembly.

Consider BtsD^ΔSP (enzyme), for which the stoichiometry N in series [1] is 4.
Regarding “CCGGTGAGGTTCGAAAAGCGGGTTCTGGTAGTGCCGGCCGCTGGCCGGCAACCCGACCTTCGCTGATTGCCGGCCAGCGGCCGGCACTACCATGCCGCTCTTGCTCCCTTTCACGCATCCCCCCCCCCCGCCCCTTGACCTCAACCAATGTTGAGGTGCGATAACAGTCTCCCCACGGCCAGCCCTCTGGCCTTCCCCACGGAGATTGCTTCA (double strand) [sod1-3 promoter probe]”, in series [2], the binding result was “binds”.
